Assay results taken from patent US20050095674A1, “Cannabinoid receptor interacting proteins and methods of use” (priority 2003, published 2005).

Columns and labels:
[1] = target: rat CB1 cannabinoid receptor, wild type (rat) (UniProt P20272); assay: cell-based or functional assay
CB1 receptors = target: T1, CB1 receptors (Rattus norvegicus, UniProt P20272); assay: Whole-cell patch clamp of Ca2+ currents in SCG neurons microinjected with rCB1 and rat CRIP1a; format: cell-based
T1 construct: expressed in transfected cells

[2] = target: T2, CB1-464 truncated receptor (Rattus norvegicus, UniProt P20272); assay: Whole-cell patch clamp of Ca2+ currents in SCG neurons expressing the CB1-464 truncated receptor; format: cell-based; conditions: coexpression of CRIP1a with CB1-464 truncated receptor
T2 construct: expressed in transfected cells

[3] = target: T3, C-terminus (amino acids 418-472) of the CB1 cannabinoid receptor (Homo sapiens, UniProt P21554); assay: Yeast two hybrid, domains of CRIP1b against the CB1 C-terminus; format: binding; conditions: CRIP1b parts tested alone and in combination
T3 construct: expressed in transfected cells; host or cells: Y190 yeast cells
Description: A human brain cDNA library (Clontech) containing 5×10^6 independent clones with an average insert size of 1.5 kb fused to the GALA activation domain was cotransformed into Y 190 yeast cells with a bait plasmid consisting of the amino acids at positions 418-472 of the human cannabinoid receptor (CB1) fused to the GALA DNA binding domain. An overnight culture of Y190 cells was diluted to an OD600 of 0.08 (20 ml/reaction) and incubated at 30° C. until an OD600 of 0.2-0.4. The cells were washed in […] of water and resuspended in […] of 100 mM LiAc, 10 mM Tris-HCl, pH 7.5, and 1 mM EDTA (LiAc/TE). Single stranded herring testis DNA (200 μg), 20 μg of bait plasmid, 20 μg of carrier plasmid, and 1.2 ml of 40% polyethyleneglycol/LiAc/TE were added to the cells, followed by incubation at 30° C. for 30 minutes at 225 rpm. […] After incubation of the plates at 30° C. for 3-5 days, β-galactosidase activity of the colonies was assessed by lifting colonies onto filters, lysing the colonies by freezing in liquid nitrogen, and exposing the filters to 20 mg/ml X-gal in phospate-containing buffer.
To determine which domains of CRIP1b interact with the C-terminus (amino acids 418-472) of the CB1 cannabinoid receptor, yeast two hybrid experiments were performed. […] When each exon was tested alone, no interaction was detected (FIGS. 5A, 5C, and 5E). […]

[4] = target: T4, GST alone coupled to Glutathione Sepharose-4B (UniProt P08515 1-218 = GST); assay: affinity chromatography on Glutathione Sepharose-4B, SDS-PAGE and S-tag Western blot
T4 construct: the lane descriptions speak of glutathione Sepharose only; also called GST column; glutathione sepharose only column

[5] = target: T5, amino acids at positions 418-472 of the human cannabinoid receptor (CB1) fused to the GALA DNA binding domain (human, UniProt P04386 1-147; P21554 418-472); assay: yeast two-hybrid, beta-galactosidase colour
T5 construct: Yeast two-hybrid bait in Y190 cells; also called bait plasmid

GST-CB1 (418-472) = target: T6, GST-CB1 (418-472) (Homo sapiens, UniProt P21554); assay: In vitro pull-down assay (GST affinity chromatography) of bacterially expressed proteins; format: binding
T6 construct: encoding amino acids at position 418-472 of the CB1 receptor into the pGEX-4T-1 expression vector; made in house; host or cells: bacteria; BL21(DE3) E. coli is stated for CRIP1b only
Description: To confirm the interaction between the CB1 cannabinoid receptor and the interacting protein CRIP1b, in vitro pull-down assays of bacterially expressed proteins were performed. A GST fusion peptide was created between GST and a peptide of the CB1 receptor by cloning the polynucleotide sequence encoding amino acids at position 418-472 of the CB1 receptor into the pGEX-4T-1 expression vector. This GST fusion peptide was expressed and purified using standard protocols. GST alone and purified GST/CB1 fusion peptide were coupled to a first and second Glutathione Sepharose-4B column, respectively, as per standard protocols (Smith and Johnson, 1988, Gene, 67:31-40).
Polymerase chain reaction (PCR) was used to amplify the amino acids at positions 34-128 of CRIP1b in the pCT2 shuttle vector with EcoRI and XhoI restriction endonuclease sites. The PCR product was inserted in-frame into a pET30C expression plasmid harboring an S-tag (Novagen, Wis.). The resulting plasmid was transformed into BL21(DE3) E. coli cells, and these cells were induced to express CRIP1b by the introduction of isopropyl β-D-thiogalactopyranoside.
The bacteria were lysed in a buffer containing 50 mM Tris-Cl (pH 8.0), 1 mM EDTA, 100 mM NaCl, phenylmethylsulfonylfluoride (PMSF) (8 μl of 50 mM PMSF per gram of bacterial pellet). […]

[6] = target: T7, C-terminal tail of CB1 (amino acids 464-473 of rat CB1) (Rattus norvegicus, UniProt P20272); assay: Yeast two-hybrid, CB1 receptor interaction site with CRIP1b; format: binding
T7 construct: C-terminal tail of CB1 (amino acids 464-473 of rat CB1); expressed in transfected cells; host or cells: yeast (strain not restated for this experiment)
Text: The yeast two-hybrid technique was used to determine the CB1 receptor interaction site with CRIP1b. The C-terminus of the CB1 receptor contains separate domains critical for desensitization and internalization (Hsieh et al., 1999; Jin et al., 1999).

T1 sequence (P20272 whole entry): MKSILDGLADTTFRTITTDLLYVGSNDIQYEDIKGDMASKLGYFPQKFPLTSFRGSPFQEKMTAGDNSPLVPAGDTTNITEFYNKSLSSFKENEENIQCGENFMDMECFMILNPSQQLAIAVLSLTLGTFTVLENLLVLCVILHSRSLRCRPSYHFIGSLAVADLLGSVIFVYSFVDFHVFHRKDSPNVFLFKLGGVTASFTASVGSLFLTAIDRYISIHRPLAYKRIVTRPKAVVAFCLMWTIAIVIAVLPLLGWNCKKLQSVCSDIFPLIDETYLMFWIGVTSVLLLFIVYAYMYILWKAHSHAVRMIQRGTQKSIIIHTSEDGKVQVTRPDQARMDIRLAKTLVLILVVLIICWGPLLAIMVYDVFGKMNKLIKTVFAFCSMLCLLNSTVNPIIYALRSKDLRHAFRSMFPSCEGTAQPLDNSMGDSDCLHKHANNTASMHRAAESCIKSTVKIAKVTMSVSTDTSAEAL
T3 sequence (P21554 418-472): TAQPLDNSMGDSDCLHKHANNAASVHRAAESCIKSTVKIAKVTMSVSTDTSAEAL
T6 sequence (P21554 418-472): as above
T2 sequence (P20272 1-464 limits assumed): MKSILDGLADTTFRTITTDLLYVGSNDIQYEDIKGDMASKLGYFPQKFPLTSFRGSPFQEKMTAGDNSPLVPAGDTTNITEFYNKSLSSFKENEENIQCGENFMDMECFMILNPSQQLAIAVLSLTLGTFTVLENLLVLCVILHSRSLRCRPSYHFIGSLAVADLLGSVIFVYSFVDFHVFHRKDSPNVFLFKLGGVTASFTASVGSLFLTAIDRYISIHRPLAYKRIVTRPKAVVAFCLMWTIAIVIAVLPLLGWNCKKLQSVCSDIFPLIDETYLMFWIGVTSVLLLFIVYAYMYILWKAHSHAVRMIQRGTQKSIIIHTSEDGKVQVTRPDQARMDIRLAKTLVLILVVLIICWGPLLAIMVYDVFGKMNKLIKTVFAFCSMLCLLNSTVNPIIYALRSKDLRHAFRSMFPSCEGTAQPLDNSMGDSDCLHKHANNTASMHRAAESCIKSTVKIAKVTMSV
T4 sequence (P08515 whole entry): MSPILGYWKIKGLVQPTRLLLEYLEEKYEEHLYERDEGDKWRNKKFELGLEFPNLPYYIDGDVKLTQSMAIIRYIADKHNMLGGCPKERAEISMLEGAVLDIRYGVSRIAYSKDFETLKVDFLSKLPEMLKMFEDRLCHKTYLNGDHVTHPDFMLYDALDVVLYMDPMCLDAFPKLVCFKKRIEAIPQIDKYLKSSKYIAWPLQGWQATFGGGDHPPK

rat CRIP1a (from UniProt Q5M7A7 1-164)
Ca^2+ current facilitation ratio [1]: 1.26

B1: CRIP1a: CB1 receptor interacting protein 1a cloned from rat brain cDNA, 164 amino acids, SEQ ID NO:7 (protein, listed as Rattus sp.)
chain: MGDLPGIVRLSIALRIQPNDGPVFFKVDGQRFGQNRTIKLLTGSSYKVEVKIKPTTLQVENISIGGVLVPLELKCKEPDGERVVYTGIYDTEGVAPTKSGERQPIQITMPFTDIGTFETVWQVKFYNYHKRDHCQWGSPFSVIEYECKPNETRSLMWVNKESFL
Ca2+ current facilitation ratio (CB1 receptors; SCG neurons expressing CB1 receptors co-expressed with CRIP1a, 1.46±0.08 with CB1 alone): 1.26±0.03
effect on agonist-induced (WIN55,212-2) inhibition of the Ca2+ current (CB1 receptors; SCG neurons expressing both CB1 and CRIP1a): had no effect on the agonist-induced inhibition of the Ca^2+ current
effect on SR141716-induced increase of Ca2+ current (constitutive activity of CB1) (CB1 receptors; co-expression of CRIP1a with CB1 receptors in SCG neurons): significantly inhibited the effect of SR141716
effect on SR141716-induced increase of Ca2+ current (CB1 receptors; expression of CRIP1a alone, without CB1): had no effect
effect on SR141716-induced increase of Ca2+ current [2]: did not significantly inhibit effect of SR141716

B2: CRIP1b exon 1 and exon 2: Exon 1 (amino acids 34-60 of SEQ ID NO:2) and exon 2 (amino acids 61-110) in combination (protein, listed as Homo sapiens)
chain: QNRTIKLLTGSSYKVEVKIKPSTLQVENISIGGVLVPLELKSKEPDGDRVVYTGTYDTEGVTPTKSGERQPIQITMP
interaction in yeast two hybrid [3]: positive interaction

B3: S-tagged CRIP1b (amino acids at positions 34-128) expressed from pET30C in BL21(DE3) E. coli (other)
chain: QNRTIKLLTGSSYKVEVKIKPSTLQVENISIGGVLVPLELKSKEPDGDRVVYTGTYDTEGVTPTKSGERQPIQITMPECLEQRPQEISLTYECEE
notes: also called CB1-IP1; CRIP1b lysate; not shown: vector-encoded leader of pET30C with the S-tag
interaction in yeast two hybrid [3]: enhanced
binding result [4]: no binding

B4: CRIP1b exon 2 (amino acids 61-110 of SEQ ID NO:2) (other, not shown: large carriers)
chain: NISIGGVLVPLELKSKEPDGDRVVYTGTYDTEGVTPTKSGERQPIQITMP
notes: Yeast two-hybrid construct
binding result [5]: no binding

B5: CRIP1b: CB1 Receptor Interacting Protein 1b, 128 amino acid human polypeptide, SEQ ID NO:2; amino acids 34-128 used in pull-down (protein, listed as Homo sapiens)
chain: MGDLPGLVRLSIALRTQPNDGPVFYKVDGQRFGQNRTIKLLTGSSYKVEVKIKPSTLQVENISIGGVLVPLELKSKEPDGDRVVYTGTYDTEGVTPTKSGERQPIQITMPECLEQRPQEISLTYECEE
pull-down by GST-CB1 (418-472) on glutathione-Sepharose 4B (GST-CB1 (418-472); S-tagged CRIP1b (amino acids 34-128) bacterial lysate): pulled down
binding to glutathione Sepharose-4B matrix without CB1 fragment (control) (GST-CB1 (418-472); S-tagged CRIP1b bacterial lysate): did not bind to glutathione Sepharose-4B on its own
interaction in yeast two-hybrid with the most distal 9 amino acids of the CB1 receptor ([6]; minimal CB1 domain tested): strong interaction
interaction in yeast two-hybrid with the CB1 desensitization and internalization domains ([6]; separate C-terminal domains of CB1): neither of these domains interacted strongly
